According to article PMC3515998:

Biological target: Gαi/o proteins (human (endogenous in HEK293T)) (UniProt P63096)
Sequence of UniProt P63096 (P63096 whole entry): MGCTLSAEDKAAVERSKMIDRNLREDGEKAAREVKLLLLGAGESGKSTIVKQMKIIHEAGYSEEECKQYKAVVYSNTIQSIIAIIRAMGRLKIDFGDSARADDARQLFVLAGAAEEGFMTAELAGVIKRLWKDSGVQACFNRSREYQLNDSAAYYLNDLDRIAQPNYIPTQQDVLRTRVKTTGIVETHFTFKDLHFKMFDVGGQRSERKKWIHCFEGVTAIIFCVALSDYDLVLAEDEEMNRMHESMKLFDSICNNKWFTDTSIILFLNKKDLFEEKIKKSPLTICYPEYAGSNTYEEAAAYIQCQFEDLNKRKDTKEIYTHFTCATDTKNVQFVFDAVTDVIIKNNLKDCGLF

EC50 of MCH for stimulation of [35S]GTPγS binding to membranes of transfected HEK293T cells (0.001-1000 nM MCH, 30 min, 30°C) [nM]	maximal [35S]GTPγS binding to membranes with 1 μM MCH, percent of basal	basal [35S]GTPγS binding to membranes (no MCH), percent of Flag-MCHR1 [%]	Substance
0.23	208 % of basal		Flag-MCHR1 (rat melanin-concentrating hormone receptor 1 with a Flag epitope tag before the first methionine) (from UniProt P97639 1-353)
0.47	191 % of basal	97.6	F318K mutant of Flag-tagged rat MCHR1 (from UniProt P97639 1-353) (receptor)
